Columns and labels:
[1] = molecular target: PTP1BS187C lite / C3-SLF conjugate (UniProt P18031); experiment: X-ray crystal structure FKBP12-C3SLF-PTP1BS187C
[2] = molecular target: T1, FKBP12-Compound 1 binary complex (UniProt P62942 1-108); experiment: ITC, 298 K; FKBP12 + Compound 1b in cell, CEP25011.4 in syringe
T1 construct: FKBP12 (10 µM) pre-incubated with 20 µM of the non-covalent ligand Compound 1 in the ITC cell
Procedure: (§1) CEP250 protein stocks are diluted to 50 μM in assay buffer and supplemented with 20 μM compound (1% DMSO final) before being filled into the injection syringe. A control experiment in the absence of compound is also run to determine the heat associated with operational artifacts and the dilution of titrant as it is injected from the syringe into the reaction cell.
(§2) Data Fitting: Data were fitted with the Origin ITC200 software according to the following procedure: [0473] 1) Read raw data [0474] 2) In “mRawITC”: adjust integration peaks and baseline, integrate all peaks [0475] 3) In “Delta H”—data control: remove bad data (injection #1 and other artifacts), subtract straight line (background subtraction) [0476] 4) In “Delta H”—model fitting: select one set of sites model, perform fitting with Levenberg-Marquardt algorithm until Chi Square is not reduced further, finish with “done” (parameters N, Kₐ and ΔH are calculated based on fitting)

[3] = molecular target: T2, 12xHIS tagged FKBP12 / Compound 1 binary complex (UniProt P62942 1-108, limits assumed); experiment: SPR (Biacore X100), 12xHIS FKBP12 on NTA chip with 1 µM Compound 1, CEP250 as analyte, 1:1 model, 25 °C
T2 construct: Immobilized on an NTA chip, with 1 µM Compound 1 in all buffers; also called immobilized FKBP12-Compound 1 binary complex; not shown: 12xHIS tag
Procedure: Experimental Protocol: Experiments are performed at 25° C. […] The second flow cell is not activated as a reference for non-specific interaction of the analyte to the sensor chip. […] The surface is regenerated between analyte injections with 350 mM EDTA.
Data Fitting: The BiaEvaluation software program is used for data fitting. All data is reference subtracted against both the reference flow cell and a buffer injection. For kinetic analyses, data is locally fit to a 1:1 interaction model.

[4] = molecular target: T3, FKBP12-Compound 2 binary complex (UniProt P62942 1-108); experiment: ITC, 298 K; FKBP12 + Compound 2 in cell, CEP25011.4 in syringe
T3 construct: FKBP12 (10 µM) pre-incubated with 20 µM of the non-covalent ligand Compound 2 in the ITC cell
Procedure: as §1, §2

[5] = molecular target: MCL1S245C lite / C3-SLF conjugate (UniProt Q07820); experiment: X-ray crystal structure MCL1S245C/C3SLF/FKBP52, 3.0 Å
Chain of MCL1S245C lite / C3-SLF conjugate (Q07820 other isoform, or with tags, fused parts or gaps with the stated changes limits assumed): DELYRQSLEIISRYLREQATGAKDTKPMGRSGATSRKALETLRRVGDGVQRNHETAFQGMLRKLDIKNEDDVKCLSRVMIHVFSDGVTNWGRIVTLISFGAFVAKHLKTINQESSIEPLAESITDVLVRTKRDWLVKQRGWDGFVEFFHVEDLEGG

Chain of PTP1BS187C lite / C3-SLF conjugate (P18031 other isoform, or with tags, fused parts or gaps limits assumed, change not shown): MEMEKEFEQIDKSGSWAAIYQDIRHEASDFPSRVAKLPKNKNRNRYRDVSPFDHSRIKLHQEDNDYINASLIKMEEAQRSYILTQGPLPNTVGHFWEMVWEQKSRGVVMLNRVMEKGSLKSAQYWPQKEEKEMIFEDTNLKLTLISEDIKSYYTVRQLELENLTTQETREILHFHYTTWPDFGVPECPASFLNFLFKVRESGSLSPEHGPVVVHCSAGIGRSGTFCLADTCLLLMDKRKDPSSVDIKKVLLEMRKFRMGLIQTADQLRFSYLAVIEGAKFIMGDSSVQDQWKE
T2 sequence (P62942 whole entry, one chain of several): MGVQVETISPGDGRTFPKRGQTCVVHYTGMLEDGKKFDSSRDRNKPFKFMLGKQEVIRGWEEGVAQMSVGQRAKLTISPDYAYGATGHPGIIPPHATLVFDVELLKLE
T3 sequence (P62942 whole entry, one chain of several): as above
T1 sequence (P62942 whole entry, one chain of several): as above

For “FKBP12 (in-house) (from UniProt P62942 1-108) (enzyme)”, the buried surface area of PTP1BS187C [1] was 427 Å^2 and the total buried surface area of the complex [1] was 1040 Å^2.

B1: CEP25011.4 (residues 2134-2231) (other, UniProt Q9BV73 2134-2231, looked up)
chain: MEEQSLKLDSLEPRLQRELERLQAALRQTEAREIEWREKAQDLALSLAQTKASVSSLQEVAMFLQASVLERDSEQQRLQDELELTRRALEKERLHSPG
notes: range 2134-2231
For B1, the Kd [2] was 70 nM, the Kd [3] was 5.4 nM and the Kd [4] was 80 nM.

B2: FKBP52 (in-house, residues 1-140) (enzyme, UniProt Q02790 1-140, looked up)
chain: MTAEEMKATESGAQSAPLPMEGVDISPKQDEGVLKVIKREGTGTEMPMIGDRVFVHYTGWLLDGTKFDSSLDRKDKFSFDLGKGEVIKAWDIAIATMKVGEVCHITCKPEYAYGSAGSPPKIPPNATLVFEVELFEFKGE
B2 showed a buried surface area contributed by FKBP52 [5] of 804 Å^2, a share of buried surface area contributed by FKBP52 [5] of 60% and a total buried surface area of the complex [5] of 1410 Å^2.

Reference: US20210405060A1 (published 2021)
